Measurements from patent US20170275350A1 (Scripps Research, published 2017).

T1: Protease activated receptor-1 (PAR1), endogenous on EA.hy.926 endothelial cells (human, UniProt P25116 42-425)
T1 sequence: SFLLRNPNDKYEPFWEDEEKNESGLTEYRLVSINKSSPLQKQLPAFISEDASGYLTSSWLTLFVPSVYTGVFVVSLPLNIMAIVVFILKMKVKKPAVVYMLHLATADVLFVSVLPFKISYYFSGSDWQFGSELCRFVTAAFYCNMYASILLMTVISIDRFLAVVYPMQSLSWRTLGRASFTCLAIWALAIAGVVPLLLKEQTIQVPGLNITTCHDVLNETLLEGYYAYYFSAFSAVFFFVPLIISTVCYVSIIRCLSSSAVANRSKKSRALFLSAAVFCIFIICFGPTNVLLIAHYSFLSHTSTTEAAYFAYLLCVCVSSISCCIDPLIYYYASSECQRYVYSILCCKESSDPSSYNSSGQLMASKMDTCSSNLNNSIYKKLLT


Experiments:
[1] = test system: Synthetic PAR1 N-terminal peptide TR33-62
[2] = biological target: Protease activated receptor-1 (PAR1), endogenous on EA.hy.926 endothelial cells (human) (UniProt P25116); assay: cell-based or functional assay
[3] = biological target: T1, Protease activated receptor-1 (PAR1), …; assay: cell-based or functional assay

Chain of Synthetic PAR1 N-terminal peptide TR33-62 (chain, as listed by the source): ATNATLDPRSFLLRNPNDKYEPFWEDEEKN

| ERK1/2 phosphorylation in EA.hy.926 cells (immunoblot, ratio to total ERK1/2) [3] [fold] | Molecule | cleavage of the peptide (reverse phase HPLC, MALDI-TOF of fragments) [1] | further results |
| --- | --- | --- | --- |
| – | Activated Protein C | APC cleaves this PAR1 peptide at Arg^46 as well as at Arg^41 | – |
| – | Activated Protein C (from UniProt P04070 43-461) (enzyme) | – | ERK1/2 phosphorylation in EA.hy.926 cells (immunoblot, ratio to total ERK1/2) [2]: 1.5 fold; decrease of ATAP2 signal relative to WEDE15, on cell Western [2]: 50% |
| – | Thrombin | the two fragments produced by thrombin (peaks A and D) corresponded to masses of 1,001 and 2,670 for cleavage at Arg^41 | – |
| 3 | TFLLRNPNDK [TFLL peptide (TR42-51 with S42T)] | – | – |
| 1.5 | NPNDKYEPFWEDEEKNESGL [PAR1 peptide TR47-66] | – | – |
